Assay results reported in a protein production outcome set (Wang et al. 2014).

Test: label from the status in PepcDB records
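Further: failed if final PepcDB status was selected cloned or expressed and not failed if soluble or beyond.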

Sequence | protein production
DVVVVGSGVAGPIVARDVAKAGFSVLLVDKKPAIGTPKQCAEGINVNVFKEFDIPYDKRFINREIYGARIYSPSGYTAELRYDKVSGVILERKVFDKMLAYYAAKAGADVWARTEVIDLLRKEGKIMGVKAKHEGELVEIEAKIIVAADGVESTVARLAGINTYAPPHEFDSAYEYEMIIEGYDPDLIHLWFGNEIAPRGYVWVFPKDEDRANVGIGINSDNEKTAKYYLDKWLKENNIPTKKILEINVGLVPVGGFVRELVKENVAVVGDAARQVNPVHGGGMYEAMKAANILAKWIVKALEEENLELLKNYTKEWWEVEGPKMERLLKLRRAMEKLTDEDIDVFVQLLGGTDLEKLAGGNYFEVVKALMKHPKVLMSKRRLEILKALL | failed
MKILRRTITGAATGLLLALPGVALAGTTLRVASEEAFATPAKVAAQSALEHVEKTLPDATGGEVSVQLYPGGALGSEKELIKALADGTVDAMVLSPGNAAGIVPEVQLFSASYLFESYDHARAVIKDDAFFEALAQIIAEKQAGFQLAGIGLTGTRNYYSRSRAVETIEDLSGVKMRVMSSPTEFKVWSELGTLPTTIPAPEIYTSLQTGVVDAAESSLPAISGSKYYEVAPYISLTQHQFNLHLFLVSDIAMSRLSEGQQAAVLQAFREAGHIEIDEAIRLSDEVLAFLRERPGVTVTEVDTAPFAQKLRAVQDEVATGLGVEPLLEIIRSHGTQG | failed
MKQHILVLEDANQRRTIILDEQQYSIGRHSGTSIQIHSRQASRHHATLMRKTNSKTNEECFWIIDGDLEGNKSQNGVFVNGEKRLIHELKNGDLINFGCSINALEHHHHHH | failed
MVLEAFLVKKNEPNWLVVLRTVMPLGLSYIPIGLACGVLLHAAGFNHLLTALISVMVFSGGAQFLIASMLTINAPMTTIILMMFFLELRYALLGSSLSRYLKGQSLPFIFTFAFSMNDENYAVNYLKFATDKHWKPSQALMVEHYSLLFWTVSNIIGSLIGSALTINLQVVDFALTALFIYMAIMQTKSRLIILVAVLCGVLTIGFLVLMKSTLGLVVSTLLASLTGYFIERYLLAHKPESHLLYKVHDPTGQTAMEESDK | failed
MEESTVQAPSKRRCSVYEVDGFRFRRKKKRTTESSFVEPIQKEVSNSDSCGHVNDDLNNEEKENKLNVATVPIKSRETVSLAKQEEKTKKLYCESISKDQSEEQRLKALCEAVWTEIYKEAIEEKLPEKGTSLRVLEDVRVAFLDQLTWYLDNPEQRSKTVSEISRPNPINLELEVKIKSLEHDLNCYCNELLGWSNAKSILEEPAKDNKSNETAFSIEERAKKIAVSLSSPYQPQLTRLIKEATVCLDINFTELLEICRIVLTFKNQTAERIKVSYKQELFSNHYQHENS | failed
STVKRKPVFVKVEQLKPGTTGHTLTVKVIEANIVVPVTRKTRPASSLSRPSQPSRIVECLIGDETGCILFTARNDQVDLMKPGATVILRNSRIDMFKGTMRLGVDKWGRIEATGAASFTVKEDNNLSLVEYE | not failed
MWYYFQPKRLCHNSFMIPEKLLTYTKTIFEYSHSTVYIKDKNFHYQYMNNRGLKQLQLQEKDIMGMPDKALPFGKYAHFYNSHDYSAMEEIIYFQLDDCITKNGEKIFALSHKLPLKDEDGKTHGVIGFTKFMNLHQLMNNLNSKNTFLTPNLKINVNVDDWLKTTINLSRREMEVLYYFLQGKSIKLIAPLLHITERTVIFHLNNIKSKWGCYNKEDIYTKSFEKGLKNLTIIWDLLAMRS | failed
MMSVLARMRVMRHRAWQGLVLLVLALLLSSCGWRGISNVAIPGGPGTGPGSYTIYVQMPDTLAINGNSRVMVADVWVGSIRAIKLKNWVATLTLSLKKDVTLPKNATAKIGQTSLLGSQHVELAAPPDPSPVPLKDGDTIPLKRSSAYPTTEQTLASIATLLRGGGLVNLEGIQQEINAIVTGRADQIRAFLGKLDTFTDELNQQRDDITRAIDSTNRLLAYVGGRSEVLNRVLTDLPPLIKHFADKQELLINASDAVGRLSQSADQYLSAARGDLHQDLQALQCPLKELRRAAPYLVGALKLILTQPFDVDTVPQLVRGDYMNLSLTLDLTYSAIDNAFLTGTGFSGALRALEQSFGRDPETMIPDIRYTPNPNDAPGGPLVERGNRQC | failed
MHLQKLKNIVWTKRIGHLFERVTDIENIKRAIKRAAKRKTHRPSVQRILNDIDSYARKIQEMLVNETFVPAKYTIREIYDGIKKKKRVIAVPRFYPDQCIHHAFVQVFREIVEHGADKFSCGCVPGKGTDGARKMIKHWIKSDPIGTSKVLKLDVHHCYPTMNHEALRQKLEKKIKDRKLLNLAFKLIASYQQPMADHTRMLPEVDAVGIPVGLYTSPWFCNFFFQDIDHMIAEKTGAKHHTRYVDDIVLFDSNKRRLHKALRMIADELRKVKMQVKANWQVFPLKDRPLDFLGYKFHAGAWTTLRKSIMFRISHKAKKISKISYISPTNASGMISYMGFIYNSDSWNFWKERVKPFINLKLLKGVVSNENRKQHQAACAA | failed
MEEITEGVNNMNLAVDTQKKNRIQVSNTKKPLFFYVNLAKRYMQQYTDVELSALGMAIATVVTVAEILKNNGFAVEKKIMTSTVDIKDDSRGRPVQKAKIEITLAKSEKFDELMAAANEEKEAAEAQEQN | failed
MSRISVVIPAYNEASDLPQTIQGIRDLSLECEVIVVDDGSVDDTKKIAERLADITVALPVNQGKGQALMEGWKRAEGTHIVMLDADLGSTSSEMAHLLPPLLTNEADLVIGMLPTHSSKKGFGLVKKRAQQYIAKRTGAFLTAPLSGQRAFHRRWLPSLLEENVQGFGVETQMLLHFLLRGAVVKEIPTLMAHRYTGKTISGFIHRFQQWIDIERALRGSNTLEHHHHHH | not failed
MADADLVMTGTVLTVDDARPTAEAIAVADGRVIAVGDRSEVAGLVGANTRVIDLGAGCVMPGFVEAHGHPLLEAVVLSDRFVDIRPVTMRDADDVVAAIRGEVARRGPAGAYLVGWDPLLQSGLGEPTLTWLDSLAPNGPLVIIHNSGHKAYFNSHAAWLNGLTRDTADPKGAKYGRDGNGELDGTAEEIGAILPLLAGVADPSNFGAMLRAECARLNRAGLTTCSEMAFDPGYRPMVEAVRAELTVRLCTYEISNARMCTDATPGQGDDMLRQVGIKIWVDGSPWVGNIDLTFPYLDTPATRAIGVPPGSRGCANYTREQLAEIVGAYFPRGWQIACHVHGDGGVDTILDVYEEALRRNPRDDHRLRLEHVGAIRPDQLRRAAELGVTCSIFVDQIHYWGDVIVDDLFGAQRGSRWMPAGSAVAAGMRISLHNDPPVTPEEPLRNISVAATRVAPSGRVLAPEERLTVEQAIRAQTIDAAWQLFAEDAIGSLQVGKYADMVVLSADPRTVPPEQIADLAVRATFLAGRQVYRRLEHHHHHH | failed
MDISGHPKTRTRTIFDEVDEPVWFCCVLPIWVGEEMASGWGITGNKGRCYDFWMDFSECMSHCREPKDCTLLREDYLECLHHSKEFQRRNRIYKEEQRKLRAASRKGEEAGDGTHNHH | failed
MSRSLGIPVKLLHEASGHIVTVELKSGELYRGSMIECEDNWNCQLEDITYTAKDGKVSQLEHVFIRGSKVRFMVIPDILKHAPMFKRLDARIKGKSSSLGVGRGRGAMRGKPAAGPGRGTGGRGAVPPVRR | failed
MTNKGYFWVVASLVLASAAQVLMKSGMLALPSISMTHWPSLSTLMAGWPVVAVLVGIICYGLSMVCWFMVLRYLPLSRAYPLISLSYAVVYLAAVFLPWLNEPMSLRKNLGVLIILLGVWLVSRDAQATK | failed
